Columns and labels:
pSer380 PTEN = molecular target: T1, pSer380 PTEN
T1 chain: EPDHYRYSDTTDSDPENE

[1] = molecular target: T2, pSer380/pThr382/pThr 383 PTEN
T2 chain: EPDHYRYSDTTDSDPENE

pThr382 PTEN = molecular target: T3, pThr382 PTEN
T3 chain: EPDHYRYSDTTDSDPENE

pThr382/pThr 383 PTEN = molecular target: T4, pThr382/pThr 383 PTEN
T4 chain: EPDHYRYSDTTDSDPENE

pThr383 PTEN = molecular target: T5, pThr383 PTEN
T5 chain: EPDHYRYSDTTDSDPENE

B1: GST (Glutathione S-Transferase)-NDRG2 fusion protein (protein)
chain: MAELQEVQITEEKPLLPGQTPEAAKTHSVETPYGSVTFTVYGTPKPKRPAILTYHDVGLNYKSCFQPLFQFEDMQEIIQNFVRVHVDAPGMEEGAPVFPLGYQYPSLDQLADMIPCVLQYLNFSTIIGVGVGAGAYILARYALNHPDTVEGLVLINIDPNAKGWMDWAAHKLTGLTSSIPEMILGHLFSQEELSGNSELIQKYRNIITHAPNLDNIELYWNSYNNRRDLNFERGGDITLRCPVMLVVGDQAPHEDAVVECNSKLDPTQTSFLKMADSGGQPQLTQPGKLTEAFKYFLQGMGYMASSCMTRLSRSRTASLTSAASVDGNRSRSRTLSQSSESGTLSSGPPGHTMEVSC
FLAG-PTEN, P60484
  in vitro dephosphorylation of PTEN, Western blot with anti-PTEN antibodies specific to each phosphorylation: dephosphorylation effects were recognized in BAP used as a positive control, and in GST-NDRG2
  phosphorylation status of PTEN protein by various PTEN phosphorylation antibodies after the reaction: only S380, T382, and T383 are dephosphorylated by mixing with NDRG2, and S370 and S385 are not altered
pSer380 PTEN
  dephosphorylation of phosphorylated peptides (DOTBLOT method): cannot dephosphorylate the peptide wherein only S380 or only T383 is phosphorylated
[1]
  dot blot phosphatase assay, detection with rabbit anti-Phospho-PTEN (Ser380/Thr382/Thr383) polyclonal antibodies: signals disappeared in the phosphorylated peptides at Thr382, Thr382/Thr383, and Ser380/Thr382/Thr383 by the reaction with NDRG2 protein
  dot blot phosphatase assay, detection with rabbit anti-phospho-PTEN (Ser380) polyclonal antibodies: a signal disappeared in the phosphorylated peptide of Ser380/Thr382/Thr383 by the reaction with NDRG2 protein
  production level of the phosphoric acid groups (phosphopeptide phosphatase assay, BIOMOL GREEN): an increase in the production level of the phosphoric acid groups in the Thr382/Thr383 peptide and Ser380/Thr382/Thr383 peptide was recognized compared to the phosphorylation of Thr382 alone
pThr382 PTEN
  dephosphorylation activity (phosphopeptide phosphatase assay, free phosphate by BIOMOL GREEN): NDRG2 showed a dephosphorylation activity against the peptide including the phosphorylation at Thr382 of PTEN
  dot blot phosphatase assay, detection with rabbit anti-Phospho-PTEN (Ser380/Thr382/Thr383) polyclonal antibodies: signals disappeared in the phosphorylated peptides at Thr382, Thr382/Thr383, and Ser380/Thr382/Thr383 by the reaction with NDRG2 protein
pThr382/pThr 383 PTEN
  dot blot phosphatase assay, detection with rabbit anti-Phospho-PTEN (Ser380/Thr382/Thr383) polyclonal antibodies: signals disappeared in the phosphorylated peptides at Thr382, Thr382/Thr383, and Ser380/Thr382/Thr383 by the reaction with NDRG2 protein
  production level of the phosphoric acid groups (phosphopeptide phosphatase assay, BIOMOL GREEN): an increase in the production level of the phosphoric acid groups in the Thr382/Thr383 peptide and Ser380/Thr382/Thr383 peptide was recognized compared to the phosphorylation of Thr382 alone
pThr383 PTEN
  dephosphorylation of phosphorylated peptides (DOTBLOT method): cannot dephosphorylate the peptide wherein only S380 or only T383 is phosphorylated

From patent publication US20120107299
